Reference: the supplement of paper PMC9112550, “Optimization of the antimicrobial peptide Bac7 by deep mutational scanning” (BMC Biology, 2022)

System: Escherichia coli TOP10
Experiment: shrunken log2 fold change of peptide-encoding DNA abundance (4.5 h post-induction vs induction); higher = less antimicrobial activity (less host growth inhibition)
Details: time post-induction: 4.5 h; library: site-saturation at positions 5, 18, 19, 20
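Note: peptides expressed intracellularly from a pBAD plasmid library in pooled LB shake-flask culture, induced with 0.3% L-arabinose, DNA abundance read by NGS, three biological replicates, DESeq2 with apeglm shrinkage.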

Sequence | shrunken log2 fold change
RRIRFRPPRLPRPRPRPIPRPRP | 0.365
RRIRFRPPRLPRPRPRPIPSPRP | -0.0572
RRIRFRPPRLPRPRPRPIRNPRP | -0.0537
RRIRFRPPRLPRPRPRPISCPRP | -0.038
RRIRFRPPRLPRPRPRPISNPRP | -0.48
RRIRFRPPRLPRPRPRPITYPRP | -0.472
RRIRFRPPRLPRPRPRPIVFPRP | -0.0906
RRIRFRPPRLPRPRPRPIVQPRP | 0.00873
RRIRFRPPRLPRPRPRPIVWPRP | 0.0539
RRIRFRPPRLPRPRPRPIWIPRP | -0.234
RRIRFRPPRLPRPRPRPIWSPRP | 0.0199
RRIRFRPPRLPRPRPRPKACPRP | -0.174
RRIRFRPPRLPRPRPRPKAMPRP | 0.23
RRIRFRPPRLPRPRPRPKCWPRP | 0.267
RRIRFRPPRLPRPRPRPKEYPRP | -0.468
RRIRFRPPRLPRPRPRPKFGPRP | 0.039
RRIRFRPPRLPRPRPRPKGFPRP | 0.21
RRIRFRPPRLPRPRPRPKHLPRP | -0.0736
RRIRFRPPRLPRPRPRPKHTPRP | -0.0698
RRIRFRPPRLPRPRPRPKLDPRP | 0.0288
RRIRFRPPRLPRPRPRPKLVPRP | 0.147
RRIRFRPPRLPRPRPRPKMDPRP | -0.0752
RRIRFRPPRLPRPRPRPKMHPRP | 0.0482
RRIRFRPPRLPRPRPRPKNAPRP | -0.0814
RRIRFRPPRLPRPRPRPKPIPRP | 0.0634

Sequence | shrunken log2 fold change
RRIRFRPPRLPRPRPRPKPNPRP | 0.545
RRIRFRPPRLPRPRPRPKPYPRP | -0.109
RRIRFRPPRLPRPRPRPKQDPRP | 0.21
RRIRFRPPRLPRPRPRPKRKPRP | 0.425
RRIRFRPPRLPRPRPRPKRQPRP | 0.401
RRIRFRPPRLPRPRPRPKSAPRP | -0.00592
RRIRFRPPRLPRPRPRPKSWPRP | 0.199
RRIRFRPPRLPRPRPRPKTLPRP | -0.145
RRIRFRPPRLPRPRPRPKTVPRP | -0.117
RRIRFRPPRLPRPRPRPKTYPRP | -0.578
RRIRFRPPRLPRPRPRPKVEPRP | 0.114
RRIRFRPPRLPRPRPRPKVTPRP | -0.2
RRIRFRPPRLPRPRPRPKVWPRP | -0.249
RRIRFRPPRLPRPRPRPKWIPRP | -0.699
RRIRFRPPRLPRPRPRPKYEPRP | -0.063
RRIRFRPPRLPRPRPRPKYMPRP | -0.836
RRIRFRPPRLPRPRPRPKYRPRP | 0.225
RRIRFRPPRLPRPRPRPLARPRP | -0.0473
RRIRFRPPRLPRPRPRPLCKPRP | 0.0214
RRIRFRPPRLPRPRPRPLDYPRP | -0.0121
RRIRFRPPRLPRPRPRPLEAPRP | 0.0974
RRIRFRPPRLPRPRPRPLFNPRP | -0.605
RRIRFRPPRLPRPRPRPLHQPRP | -0.37
RRIRFRPPRLPRPRPRPLIVPRP | -0.473
RRIRFRPPRLPRPRPRPLLIPRP | -0.385

Sequence | shrunken log2 fold change
RRIRFRPPRLPRPRPRPLLLPRP | -0.443
RRIRFRPPRLPRPRPRPLMPPRP | -0.00679
RRIRFRPPRLPRPRPRPLNDPRP | -0.839
RRIRFRPPRLPRPRPRPLPGPRP | 0.403
RRIRFRPPRLPRPRPRPLQDPRP | 0.118
RRIRFRPPRLPRPRPRPLQEPRP | -0.203
RRIRFRPPRLPRPRPRPLQFPRP | 0.0763
RRIRFRPPRLPRPRPRPLRDPRP | 0.717
RRIRFRPPRLPRPRPRPLSDPRP | 0.207
RRIRFRPPRLPRPRPRPLSWPRP | 0.245
RRIRFRPPRLPRPRPRPLWRPRP | 0.32
RRIRFRPPRLPRPRPRPLWYPRP | -0.721
RRIRFRPPRLPRPRPRPLYRPRP | -0.702
RRIRFRPPRLPRPRPRPLYTPRP | -0.58
RRIRFRPPRLPRPRPRPMAIPRP | -0.226
RRIRFRPPRLPRPRPRPMEGPRP | -0.0345
RRIRFRPPRLPRPRPRPMGPPRP | -0.238
RRIRFRPPRLPRPRPRPMHRPRP | -0.0791
RRIRFRPPRLPRPRPRPMICPRP | -0.303
RRIRFRPPRLPRPRPRPMLIPRP | -0.217
RRIRFRPPRLPRPRPRPMLTPRP | -0.351
RRIRFRPPRLPRPRPRPMMKPRP | -0.0975
RRIRFRPPRLPRPRPRPMQDPRP | -0.0947
RRIRFRPPRLPRPRPRPMRDPRP | 0.109
RRIRFRPPRLPRPRPRPMTCPRP | -0.0088
